In patent US20250152742A1, “COMPOSITIONS AND METHODS FOR NEUROLOGICAL DISEASES” (Trames Bio, Inc., priority 2022, published 2025):

Assays:
[1] = molecular target: SEQ ID NO: 33 (CODA71) versus wild type α7-nAChR (Homo sapiens, UniProt P36544, F159M/H163T/I152M/R155K/V154L/W156N/Y151P); test: Sensitivity of parental chimera SEQ ID NO: 33 to ligands compared with wild type α7-nAChR
Text: To generate LGICs that conduct anion current following exposure to non-native small molecule agonists of the human α7-nAChR, chimeric ligand gated ion channel (LGIC) receptors comprising the ligand binding domain derived from the human α7 nicotinic acetylcholine receptor (α7-nAChR) and the chloride-conducting ion pore domain derived from the human GlyR1α were genetically engineered. […] SEQ ID NO:33 was approximate 2-fold less sensitive to nicotine and approximately 3-fold and 10-fold more sensitive to AZD-0328 and Facinicline/RG3487, respectively, than wild type. CODA71 is described in detail in WO2019104307 and WO2021035179, which are incorporated herein in their entireties.

[2] = tested on: engineered receptors and wildtype nAchRa7 receptor expressed in HEK293 cells; test: Whole cell manual patch clamp electrophysiology, EC50, HEK293 cells; format: cell-based, human; conditions: for EC50: ligand TC-5619, HEK293 cell line, read-out: Manual patch clamp based EC50, TC-5619
Method: (§1) Using whole cell manual patch clamp electrophysiology in HEK293 cells, rat DRG neurons and rat hippocampal neurons, the EC50 of the various engineered receptors disclosed herein to Ach and non-native ligands was measured using the Hill equation with peak current measurements from escalating doses of ligand. The rheobase shift was also measured in rat DRG neurons, which reflects the efficacy of the receptors. To calculate the rheobase, first, the amount of current that can produce an action potential was determined. Then the ligand was added, followed by a step wise increase in the current injected up to 700 pA.
(§2) For manual patch clamp experiments, Cells plated on coverslips were visualized at 10x and 40x on an inverted fluorescence microscope (Olympus). Recordings were made with an Axopatch 200B amplifier and Digidata 1550B (Molecular Devices) at RT using 3-6 MOhm glass patch electrodes (Sutter, BF150-86-10). Unless otherwise stated, recordings were made in extracellular solution (ECS) containing: 140 mM sodium chloride, 4 mM potassium chloride, 1 mM magnesium chloride, 2 mM calcium chloride, 10 mM HEPES, and 10 mM D-(+)-glucose (pH=7.3 with sodium hydroxide, osmolarity=305-315 mOsm). An 8-line reservoir (AutoMate Scientific) in combination with an 8-channel zero-dead-volume perfusion pencil (AutoMate Scientific) was used for perfusion. Data was acquired using pClamp software (Molecular Devices). Traces were either analyzed in Clampfit (Molecular Devices) or using custom Python code. Plotting and statistics were performed in GraphPad Prism.
For dose-response, ligand-induced currents were recorded in voltage clamp mode. For HEK cell experiments, recordings took place in the normal ECS with a cesium-based internal solution containing: 140 mM cesium chloride, 5 mM potassium fluoride, 2 mM Calcium chloride, 2 mM magnesium chloride, 10 mM HEPES, and 10 mM EGTA (pH=7.2 with cesium hydroxide, osmolarity=290-295 mOsm). For DRG neuron experiments, cells were patched in normal ECS and then switched to an NMDG-based ECS to prevent endogenous cation currents, containing: 145 mM N-methyl-D-glucamine, 4 mM potassium chloride, 0.5 mM magnesium chloride, 0.5 mM calcium chloride, 10 mM HEPES, and 10 mM D-(+)-glucose (pH=7.4 with hydrochloric acid, osmolarity=305-315mOsm). […] Capacitance and series resistance were compensated. Drugs tested include acetycholine chloride and other synthetic compounds. Drug doses were applied for 1-10 sec until the peak of the current was observed, and washes occurred for at least 2 min between dose applications. The holding current was subtracted from the peak to find the current amplitude.
Cell culture: HEK 293 cells were routinely subcultured in DMEM with 10% fetal bovine serum (ThermoFisher Scientific). […]

[3] = tested on: engineered receptors expressed in rat DRG neurons; test: Manual patch clamp ligand-induced chloride currents / EC50, rat DRG neurons; format: cell-based; conditions: for EC50: ligand TC-5619, Rat DRG Neurons, read-out: Manual patch clamp based EC50, TC-5619
Method: as §1, §2
For dose-response, ligand-induced currents were recorded in voltage clamp mode. For HEK cell experiments, recordings took place in the normal ECS with a cesium-based internal solution containing: 140 mM cesium chloride, 5 mM potassium fluoride, 2 mM Calcium chloride, 2 mM magnesium chloride, 10 mM HEPES, and 10 mM EGTA (pH=7.2 with cesium hydroxide, osmolarity=290-295 mOsm). […]

[4] = HEK293 cells and cultured rat DRG sensory neurons

B1: CODA71: parental chimeric LGIC: human α7-nAChR ligand binding domain with GlyRα1 Cys-loop fused to human GlyRα1 ion pore domain (protein)
chain: MRCSPGGVWLALAASLLHVSLQGEFQRKLYKELVKNYNPLERPVANDSQPLTVYFSLSLLQIMDVDEKNQVLTTNIWLQMSWTDHYLQWNVSEYPGVKTVRFPDGQIWKPDILLYNSADERFDATFHTNVLVNSSGHCQYLPPGIFKSSCPMDLKNFPMDVQTCKLKFGSWSYGGWSLDLQMQEADISGYIPNGEWDLVGIPGKRSERFYECCKEPYPDVTFTVTMRRRMGYYLIQMYIPSLLIVILSWISFWINMDAAPARVGLGITTVLTMTTQSSGSRASLPKVSYVKAIDIWMAVCLLFVFSALLEYAAVNFVSRQHKELLRFRRKRRHHKSPMLNLFQEDEAGEGRFNFSAYGMGPACLQAKDGISVKGANNSNTTNPPPAPSKSPEEMRKLFIQRAKKIDKISRIGFPMAFLIFNMFYWIIYKIVRREDVHNQ
modifications: synthetic sequence of chimeric LGIC
- sensitivity to ABT-126 compared with wild type α7-nAChR ([1]; ligand ABT-126): approximately as sensitive
- fold more sensitive to AZD-0328 than wild type ([1]; ligand AZD-0328): approximately 3 fold
- fold more sensitive to Facinicline/RG3487 than wild type ([1]; ligand Facinicline/RG3487): ~10 fold
- sensitivity to TC-6987 compared with wild type α7-nAChR ([1]; ligand TC-6987): approximately as sensitive
- agonist activity of TC-6987 on the receptor ([1]; ligand TC-6987, similar to wild type): partial agonist activity
- sensitivity to acetylcholine compared with wild type α7-nAChR ([1]; ligand acetylcholine): approximately as sensitive
- fold less sensitive to nicotine than wild type ([1]; ligand nicotine): ~2 fold

B2: CODA806: engineered receptor: Y115D, L131Q in SEQ ID NO: 33 (Chemogenic receptor-11) (protein)
chain: MRCSPGGVWLALAASLLHVSLQGEFQRKLYKELVKNYNPLERPVANDSQPLTVYFSLSLLQIMDVDEKNQVLTTNIWLQMSWTDHYLQWNVSEYPGVKTVRFPDGQIWKPDILLDNSADERFDATFHTNVQVNSSGHCQYLPPGIFKSSCPMDLKNFPMDVQTCKLKFGSWSYGGWSLDLQMQEADISGYIPNGEWDLVGIPGKRSERFYECCKEPYPDVTFTVTMRRRMGYYLIQMYIPSLLIVILSWISFWINMDAAPARVGLGITTVLTMTTQSSGSRASLPKVSYVKAIDIWMAVCLLFVFSALLEYAAVNFVSRQHKELLRFRRKRRHHKSPMLNLFQEDEAGEGRFNFSAYGMGPACLQAKDGISVKGANNSNTTNPPPAPSKSPEEMRKLFIQRAKKIDKISRIGFPMAFLIFNMFYWIIYKIVRREDVHNQ
modifications: synthetic sequence of chimeric LGIC
- sensitivity to RG-3487 compared to wildtype nAchRa7 receptor [2, 4]: way more sensitive to RG-3487
- sensitivity to acetylcholine compared to wildtype nAchRa7 receptor [2, 4]: essentially insensitive to acetylcholine
- chloride current on application of RG-3487 (SA-2) ([3]; cultured adult rat DRG neurons, not observed in non-transduced cells, FIG. 3): generated chloride current in a dose dependent manner

B3: COAD1056 (protein)
chain: MRCSPGGVWLALAASLLHVSLQGEFQRKLYKELVKNYNPLERPVANDSQPLTVYFSLSLLQIMDVDEKNQVLTTNIWLQMSWTDHYLQWNVSEYPGVKTVFFPDGQIWKPDILLENSADERFDATFHTNVLVNSSGHCQYLPPGIFKSSCPMDLKNFPMDVQTCKLKFGSWSYGGWSLDLQMQEADISGYIPNGEWDLVGIPGKRSERFWECCKEPYPDVTFTVTMRRRMGYYLIQMYIPSLLIVILSWISFWINMDAAPARVGLGITTVLTMTTQSSGSRASLPKVSYVKAIDIWMAVCLLFVFSALLEYAAVNFVSRQHKELLRFRRKRRHHKSPMLNLFQEDEAGEGRFNFSAYGMGPACLQAKDGISVKGANNSNTTNPPPAPSKSPEEMRKLFIQRAKKIDKISRIGFPMAFLIFNMFYWIIYKIVRREDVHNQ
modifications: synthetic sequence of chimeric LGIC
- EC50 [2]: 96 nM
- EC50 [3]: 116 nM

B4: COAD1055 (protein)
chain: MRCSPGGVWLALAASLLHVSLQGEFQRKLYKELVKNYNPLERPVANDSQPLTVYFSLSLLQIMDVDEKNQVLTTNIWLQMSWTDHYLQWNVSEYPGVKTVWFPDGQIWKPDILLENSADERFDATFHTNVLVNSSGHCQYLPPGIFKSSCPMDLKNFPMDVQTCKLKFGSWSYGGWSLDLQMQEADISGYIPNGEWDLVGIPGKRSERFWECCKEPYPDVTFTVTMRRRMGYYLIQMYIPSLLIVILSWISFWINMDAAPARVGLGITTVLTMTTQSSGSRASLPKVSYVKAIDIWMAVCLLFVFSALLEYAAVNFVSRQHKELLRFRRKRRHHKSPMLNLFQEDEAGEGRFNFSAYGMGPACLQAKDGISVKGANNSNTTNPPPAPSKSPEEMRKLFIQRAKKIDKISRIGFPMAFLIFNMFYWIIYKIVRREDVHNQ
modifications: synthetic sequence of chimeric LGIC
- EC50 [2]: 16 nM
- EC50 [3]: 56 nM
